This note sets out measurements from paper PMC8835667.

The target in this assay is tripartite motif containing 28 (TRIM28) (human (endogenous in HeLa)) (UniProt Q13263).
Sequence of tripartite motif containing 28 (TRIM28) (human (endogenous in HeLa)) (Q13263 whole entry): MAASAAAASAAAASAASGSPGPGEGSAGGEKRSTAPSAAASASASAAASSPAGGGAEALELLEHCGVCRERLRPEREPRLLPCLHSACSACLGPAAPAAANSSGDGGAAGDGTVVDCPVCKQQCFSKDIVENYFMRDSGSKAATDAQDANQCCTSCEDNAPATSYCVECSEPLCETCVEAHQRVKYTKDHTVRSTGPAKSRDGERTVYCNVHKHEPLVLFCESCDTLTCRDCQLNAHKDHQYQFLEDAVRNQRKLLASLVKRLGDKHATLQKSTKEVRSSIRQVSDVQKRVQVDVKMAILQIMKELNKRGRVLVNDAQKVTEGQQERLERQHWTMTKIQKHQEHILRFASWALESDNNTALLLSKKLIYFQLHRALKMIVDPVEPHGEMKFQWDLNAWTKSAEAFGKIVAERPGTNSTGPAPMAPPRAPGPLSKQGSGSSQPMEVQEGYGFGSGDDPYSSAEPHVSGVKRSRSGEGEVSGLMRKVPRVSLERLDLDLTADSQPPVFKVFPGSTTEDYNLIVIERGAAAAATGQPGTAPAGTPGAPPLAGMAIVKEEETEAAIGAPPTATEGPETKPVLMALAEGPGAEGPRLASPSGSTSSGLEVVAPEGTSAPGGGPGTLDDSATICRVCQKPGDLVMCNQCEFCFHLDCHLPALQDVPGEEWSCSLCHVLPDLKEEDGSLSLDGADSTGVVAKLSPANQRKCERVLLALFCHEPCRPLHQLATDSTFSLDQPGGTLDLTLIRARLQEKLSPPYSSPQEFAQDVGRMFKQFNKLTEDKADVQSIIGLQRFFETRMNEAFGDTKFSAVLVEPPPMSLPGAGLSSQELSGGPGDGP

Regarding “GST fusion of wild-type PRDM9 aKRAB-A with ZNF10-B (domain or fragment)”, the transcriptional repression factor over Gal4-DBD alone, dual luciferase reporter assay in HeLa cells (KRAB domain as Gal4-DBD fusion) was 0.9 fold.
